Test results reported in the nanobody polyreactivity screen of Harvey et al. (2022).

Experiment: yeast display, Sf9 membrane polyspecificity reagent, FACS + sequencing; frameworks hold sequencing errors
Outline: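 Nanobodies from a synthetic yeast display library (Saccharomyces cerevisiae BJ5465), induced 36–48 hours with galactose, were stained 1 hour at 4 °C with 10% biotinylated, detergent-solubilized Sf9 membrane reagent, enriched on streptavidin microbeads, then FACS-sorted. Anti-HA (expression) and streptavidin (reagent binding) fluorescence set low and high (top ~1%) gates. Polyreactivity labels come from the gate of origin. Genes were colony-PCR amplified, MiSeq 2 × 250 sequenced and filtered by CDR length.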
With “QVQLVESGGGLVQAGGSLRLSCAASGRTSTGYAMGWYRPAPGKERELVAGIDKIGGRTYYADSVKGRFTISRDNEKNTVYLQMNSLKPEDTAVYYCNRVPRRSIRYDYWGQGTKVTVSS” the “polyreactivity (PSR sort gate)” value was “high polyreactivity”. In the case of “QVQLVESGGGLVQAGGSLRLSCAASGRTTLLYAMGWYRQAPGKERELVATIRYTGGSTYADSVKGHFTISRDNAKNTVYLQMNILKPEDTAVYYCNARSYQYDGGHRYWGQGTQVTVSL”, the “polyreactivity (PSR sort gate)” value is reported as “high polyreactivity”. With “QVQLVESGGGLVQAGGSLRLSCAASGRTVGVYAMGWYRQAPGKERELVATITSGASTNYADSVKARFTISRDNAKNTVYLQMTSLKPEDTAVYYCNARRVAYASYSHPRVLDDYWGQGTQVTVST” the “polyreactivity (PSR sort gate)” value was “low polyreactivity”. For “QVQLVESGGGLVQAGGSLRLSCAASGRTVGWYAMGWYRQAPGKERELVAAITWRGGSTYYADSVKGRFTISRDNAKNTVYLQMTSLKPEDTAVYYCAAAAEKRSYYWGQGTQVTVSS”, the “polyreactivity (PSR sort gate)” value was “high polyreactivity”. With “QVQLVESGGGLVQAGGSLRLSCAASGRTVLHYDMGWYRQAPGKERELVASISSGVSTHYADSVKGRFTISRDNAKNTVYLQMNSLQPEDTAVYYCAARPYRFGRYGYDYDYWGQGTQVTVSS” the “polyreactivity (PSR sort gate)” value was “high polyreactivity”. In the case of “QVQLVESGGGLVQAGGSLRLSCAASGRTVWGYGMGWYRQAPGKERELVATISSGGSTYYADSVKGRFTISRDNAKNTVYLQMNSLKPEDTAVYYCAARPPRTYWRYQSDYWGLGTQVTVSS”, the “polyreactivity (PSR sort gate)” value is reported as “high polyreactivity”. With “QVQLVESGGGLVQAGGSLRLSCAASGRTYDQYVMGWYRQAPGKERELVAAITSGGSTYYADSVKGRFTISRDNAKNTVYLLMNSLKPEDTAVYYCNARTSVLHDYWGQGTQVTVSS” the “polyreactivity (PSR sort gate)” value was “low polyreactivity”. For “QVQLVESGGGLVQAGGSLRLSCAASGRTYGIYAMGWYRQAPGKERELVADITIGGSTYYADSVMGRFTISRDNAKNTVYLQMNSLKPEDTAVYYCNADFVVQYYFTYYRVFTYDYWGLGTQVTVSS”, the “polyreactivity (PSR sort gate)” value was “low polyreactivity”. For “QVQLVESGGGLVQAGGSLRLSCAASGRTYGRNAMGWYRQEPGKDRELVASITKRGGSTYYADSVKGRFTISRDNAKNTVYLQMNSLKPEDTAVYYCAVEAYDYWGQGSQVTVSS”, the “polyreactivity (PSR sort gate)” value was “high polyreactivity”. For “QVQLVESGGGLVQAGGSLRLSCAASGRTYGYYAMGWYRQAPGKERELVAAITRSGGSTYYADSVKGRFTISRDNAKNTVYLQMNSLKPEDTAVYYCNAVYYKGYGYWGQGSQVTVSS”, the “polyreactivity (PSR sort gate)” value was “high polyreactivity”. For “QVQLVESGGGLVQAGGSLRLSCAASGRTYKYYAMGWYRQAPGKERELVAAISRGGSTNYADSVKGRFTISRDNAKKTVYLQVNSLKPEDTAVYYCARRYIVQSGDDYWGQGTQVSVSS”, the “polyreactivity (PSR sort gate)” value was “low polyreactivity”. In the case of “QVQLVESGGGLVQAGGSLRLSCAASGRTYPGYSMGWYRQAPGKERELVAAITRGSTNYADSVKGRFTISRDNAKNTVYLQMNSLKPEYTAVYYCATRGYYYWTHYDYWGHGTQVTVSS”, the “polyreactivity (PSR sort gate)” value is reported as “low polyreactivity”. With “QVQLVESGGGLVQAGGSLRLSCAASGRTYYDYAKGCYRQAPGKEREFVSAITDRDASTSYADSVKGRFTISRDNAKTTVYLQMNSLKPYDTAVYYCAADEYWYKPYVGELYAYVYWGEGTQVTVSS” the “polyreactivity (PSR sort gate)” value was “low polyreactivity”. For “QVQLVESGGGLVQAGGSLRLSCAASGRVYAMGWYRQAPGKERELVAAISRNGGSTYYADSVKGRFTISRDNAKNNVYLQMNSLKPEDTAVYYCNKYSGYKGTDGGDYWGQGTQVTVSS”, the “polyreactivity (PSR sort gate)” value was “low polyreactivity”. With “QVQLVESGGGLVQAGGSLRLSCAASGSARYAMGWYRQAPGKERELVAAISRRGGSTFYADSVKGRFTISRDNAKNTVYLQMHSLKPEDTAVYYCAADGRISYDYWGQGTQVTVSS” the “polyreactivity (PSR sort gate)” value was “low polyreactivity”. With “QVQLVESGGGLVQAGGSLRLSCAASGSFLEPYSMGRYRQATGKERELVAAISFSDTSTYYADSVKGRFTISRDNAKNTVYLQMNSLKQEDTAVYYCAATYVLYWGYEYDYWGQGTQVTVSS” the “polyreactivity (PSR sort gate)” value was “high polyreactivity”. With “QVQLVESGGGLVQAGGSLRLSCAASGSFLVYYAMGWYRQAPGKERELVAAISWRGDSTSYADSVKGRFTISRDNAKNTVYLQMNSLKPEETAVYYCATAHDYAFYRYWYVPSEYNYWGQGTQVTVSS” the “polyreactivity (PSR sort gate)” value was “low polyreactivity”. For “QVQLVESGGGLVQAGGSLRLSCAASGSHFSSYVMGGYRQGPGKERELVAAISSIGGSTYYADSVKGRFTISRDNAKNTVYLQMNSLKPEDTAVYYCAAEPPGSTYEGGYWGQGTQVTVSS”, the “polyreactivity (PSR sort gate)” value was “low polyreactivity”. With “QVQLVESGGGLVQAGGSLRLSCAASGSIAHYAMGWYRQDPGKERELVAAINWSGGSTNYADSVKGRFTISRDNAKNTVYLQMNSMKPEDTAVYYCSAQKRGPGYPYYYWGQGTQVTVSS” the “polyreactivity (PSR sort gate)” value was “high polyreactivity”. With “QVQLVESGGGLVQAGGSLRLSCAASGSICAYYAMGWYRQAPGKERELVAAISGTGGSTNYADSVKGRFTISRDNAKNNVYLQMNSLKPEDTAVYYCAKDYSFQWRNEFNLAGEYDYWGQGTQVTVSS” the “polyreactivity (PSR sort gate)” value was “low polyreactivity”. For “QVQLVESGGGLVQAGGSLRLSCAASGSICGSYAMGWYRQAPGKERELVAAITRSGSRTYYADSVKGRFTISRDNAKNTVYLQMISLKPEDTAVYFCATGYPGGFDYWGQGTQVTVSS”, the “polyreactivity (PSR sort gate)” value was “high polyreactivity”. For “QVQLVESGGGLVQAGGSLRLSCAASGSICRRNDMGWYRQAPGKERELVAAISSNGGSTYYADSVKGRFTISRDNAKNTVYLQMNSLKPEDTAVYYCNALVRVRYSPRYGYDYWGQGTQVTVSS”, the “polyreactivity (PSR sort gate)” value was “high polyreactivity”. With “QVQLVESGGGLVQAGGSLRLSCAASGSICVQYAMGRSRQAPGKERELVAAISNSGGSTYYADSVKGRFTISRDTAKNTVYLQMNSLKPEDTAVYYCAARYHTRGAGRPYYYWGQGTQVTVSS” the “polyreactivity (PSR sort gate)” value was “high polyreactivity”. With “QVQLVESGGGLVQAGGSLRLSCAASGSIFAAYTMGWYRQAPGKERELVAAISVSTVSTYYADSVKGRFTISRDNAKNTVYLHMNSLKPEDTAVYYCNADATDSYPEKDDHDSWGQGTQVTVSS” the “polyreactivity (PSR sort gate)” value was “low polyreactivity”. For “QVQLVESGGGLVQAGGSLRLSCAASGSIFAAYTMGWYRQAPGKERELVAAISVSTVSTYYADSVKGRFTISRDTAKNTVYLQMNRLKPEDTAVYYCNADATDSYPEKDEHDSWGQGTQVTVSS”, the “polyreactivity (PSR sort gate)” value was “low polyreactivity”. With “QVQLVESGGGLVQAGGSLRLSCAASGSIFAAYTMGWYRQAPGKERELVATISSGGSTYYADSVKGRFTISRDNAKNTVYLQMNSLKPEDTAVYYCAAVAYTYTEYEYWGQGTQVTVSS” the “polyreactivity (PSR sort gate)” value was “low polyreactivity”. In the case of “QVQLVESGGGLVQAGGSLRLSCAASGSIFADNAKGWYRQAPGKEMDLVAAITWSGGSTYYADSVKGRFTISRDNAKNTVYLQMNSLKPEDTAVYYCNADDAVEYSYGGGTEFYYWGQGTQVTVSS”, the “polyreactivity (PSR sort gate)” value is reported as “low polyreactivity”. In the case of “QVQLVESGGGLVQAGGSLRLSCAASGSIFADYAMGWSRQAPGKEREFVAAITRSGTSTYYADSVKGRFTISRDNAKNTVYLQMNSLKPEDTAVYYCAKTEVLLYLYTLDYWGQGTQVTVSS”, the “polyreactivity (PSR sort gate)” value is reported as “low polyreactivity”. With “QVQLVESGGGLVQAGGSLRLSCAASGSIFADYAMGWYRQAPGKERELVAVISRRGGTTYYADSVKGRFTISRDNAKNTVYLQMNSLKPEDTAVYYCAARRSFNEYDYWGQGTQVTVSS” the “polyreactivity (PSR sort gate)” value was “high polyreactivity”. For “QVQLVESGGGLVQAGGSLRLSCAASGSIFADYVMGWYRQAPGKERELVAAISRGGGRTYYADSVKGRFTISRDNAKNTVYLQMNSLKPEDTAVYYCAARGYPTNYDPGYTYDYWGQGTQVTVSS”, the “polyreactivity (PSR sort gate)” value was “high polyreactivity”. For “QVQLVESGGGLVQAGGSLRLSCAASGSIFAGNAMGWYRQAPAKERELVAAISRRGGSTYYADSVKGRFTISRDNAKNTVYLQMNSLKPEDTAVSYCNALLRYAYHAAYGYWGQGTQVTVSS”, the “polyreactivity (PSR sort gate)” value was “high polyreactivity”. In the case of “QVQLVESGGGLVQAGGSLRLSCAASGSIFAGNAMGWYRQAPGKERELVAAISRRGGSTYYADSVKGRFTISRDNAKNTVYLQMNSLKPEDTAVYYCAAANWQRYYYWGQGTQVTVSS”, the “polyreactivity (PSR sort gate)” value is reported as “high polyreactivity”.
